Article PMC4457826 (PLoS Pathogens, 2015)

Columns and labels:
USP7-CTD = target: T1, USP7-CTD (Homo sapiens, UniProt Q93009); assay: GST pull-down, USP7-CTD; format: binding; conditions: GST pull-down; GST-ICP0 594–775, GST-GMPS and GST-UHRF1 peptides and mutants; Fig 3H, 4C-F
T1 construct: USP7-CTD (535–1102); His tag (inferred from nickel-NTA purification; vector p15TV-L); made in house; host or cells: E. coli BL21(DE3)mgk
Method: (§1) Fragments representing USP7-CTD Ubl domains were prepared using ligation independent cloning with In-Fusion (Clontech) in p15TV-L. The boundaries of the Ubl domain constructs are Ubl12 (535–776), Ubl123 (535–889), Ubl345 (776–1102), Ubl45 (886–1102) and USP7-CTD (535–1102). Plasmids expressing USP7-NTD, USP7, and myc-USP7 WT (pCANmycUSP7) were described previously. USP7 mutants E759A, D762A, D764A and D762A/D764A in Ubl123 were synthesized (Genscript) and inserted into the pET15b plasmid. USP7 mutants E759A, D762A, D764A, D762A/D764A and D762R/D764R in USP7-CTD were prepared by ACGT Corporation. The D762R/D764R mutant was then sub-cloned into wild-type pCANmycUSP7 for co-IP assays. The mammalian ICP0 expression construct pCI-110 ICP0 was obtained from Roger Everett.
(§2) The ICP0, GMPS and UHRF1 WT and mutant peptides were cloned into pGEX-2TK and expressed in E. coli BL21(DE3). GST-ICP0 594–775 was obtained from Roger Everett. The GST-ICP0 or GST-GMPS or GST-UHRF1 or GST-ICP0 594–775 cell pellets from 500 ml of LB broth were re-suspended with PBS and lysed using sonication. The cleared lysates were applied to 500 μl of equilibrated glutathione-sepharose beads and incubated with rocking for 60 min at 4°C. Unbound proteins were removed by washing with PBS. Bound proteins were eluted with 50 mM Tris pH 8.0 and 100 mM NaCL containing 30 mM reduced glutathione. […]

[1] = tested on: USP7-CTD mutant D762R/D764R; assay: GST pull-down, USP7-CTD D762R/D764R; format: binding, human
Method: as §1, §2

T1 sequence (Q93009 535-1102): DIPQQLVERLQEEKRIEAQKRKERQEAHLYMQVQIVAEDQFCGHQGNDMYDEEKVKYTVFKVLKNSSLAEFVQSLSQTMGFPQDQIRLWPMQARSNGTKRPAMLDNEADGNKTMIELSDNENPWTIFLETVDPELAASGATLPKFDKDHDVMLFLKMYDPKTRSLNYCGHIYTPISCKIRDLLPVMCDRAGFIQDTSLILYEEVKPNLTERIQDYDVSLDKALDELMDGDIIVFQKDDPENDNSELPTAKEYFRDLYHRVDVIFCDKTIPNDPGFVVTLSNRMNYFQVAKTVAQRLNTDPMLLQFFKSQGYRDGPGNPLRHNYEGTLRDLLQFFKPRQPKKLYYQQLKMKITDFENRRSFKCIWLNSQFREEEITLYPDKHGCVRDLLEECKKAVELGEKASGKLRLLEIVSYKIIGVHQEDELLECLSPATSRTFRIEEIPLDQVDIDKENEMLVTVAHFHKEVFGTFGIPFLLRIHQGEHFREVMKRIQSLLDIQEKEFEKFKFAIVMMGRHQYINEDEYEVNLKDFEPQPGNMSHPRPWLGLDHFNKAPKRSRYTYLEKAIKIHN

B1: GST-ICP0 594–775: longer ICP0 peptide corresponding to residues 594–775 (protein)
chain: AVGALGGRQEETSLGPRAASGPRGPRKCARKTRHAETSGAVPAGGLTRYLPISGVSSVVALSPYVNKTITGDCLPILDMETGNIGAYVVLVDQTGNMATRLRAAVPGWSRRTLLPETAGNHVMPPEYPTAPASEWNSLWMTPVGNMLFDQGTLVGALDFRSLRSRHPWSGEQGASTRDEGKQ
modifications: left off: GST, end not stated, kept
**Q.** Which results are given for B1?
**A.** Binding to WT USP7-CTD (USP7-CTD): interaction was observed; Binding to USP7-CTD mutant D762R/D764R [1]: not D762R/D764R USP7-CTD
